From article PMC3344845 (2012) come the findings set out here.

This test addresses chicken avidin (Gallus gallus (Chicken), UniProt P02701). The experiment in a line: ITC. Background: In ITC the heat of successive injections is recorded.

Chain of chicken avidin (P02701 25-152): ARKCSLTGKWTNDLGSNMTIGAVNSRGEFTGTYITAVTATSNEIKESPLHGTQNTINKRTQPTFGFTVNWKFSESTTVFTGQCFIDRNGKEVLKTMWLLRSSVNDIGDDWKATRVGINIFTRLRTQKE

As for SEKLSNTK (protein) [Brad-tag (synthetic peptide SEKLSNTK)], the binding result is reported as “no binding”.
